{"source": "patent US20230257470A1", "about": "(published 2023)", "biological_target": "T1, human FcγRIIb (human, UniProt P31994 43-217, limits assumed)", "T1 construct": "Whole entry (AAI46679.1); also called FcγIIB; FcgRIIb", "T1 sequence": "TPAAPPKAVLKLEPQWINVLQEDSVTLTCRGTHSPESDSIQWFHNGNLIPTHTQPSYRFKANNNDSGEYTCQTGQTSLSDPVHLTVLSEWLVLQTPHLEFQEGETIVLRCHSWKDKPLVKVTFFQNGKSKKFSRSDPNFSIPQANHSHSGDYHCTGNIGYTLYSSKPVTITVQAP", "experiment": "ratio of SPR KD values: KD for FcγRIIaR divided by KD for FcγRIIb", "method": "Next, interaction between these antibodies and FcγR was analyzed kinetically using the BIACORE™ T100 (GE Healthcare). The interaction was measured at a temperature of 25° C. using HBS-EP+ (GE Healthcare) for the running buffer. The Series S Sensor Chip CM5 (GE Healthcare) was used after immobilizing Protein A by amine coupling. […] Antibody captured on the chip was washed by allowing 10 mM glycine-HCl (pH 1.5) to react following measurement. The chip regenerated in this manner was used repeatedly. The dissociation constant KD (mol/L) was calculated from the association rate constant ka (L/mol/s) and dissociation rate constant kd (1/s) as calculated by global-fitting the measurement results with a 1:1 Langmuir binding model using the BIACORE™ Evaluation Software.\nFurthermore, KD(IIaR)/KD(IIb) and KD(IIaH)/KD(IIb) in the table respectively represent the value obtained by dividing the KD value of each variant for FcγRIIaR by the KD value of each variant for FcγRIIb, and the value obtained by dividing the KD value of each variant for FcγRIIaH by the KD value of each variant for FcγRIIb.", "data": [{"binder": "IL6R-BP089/IL6R-L (antibody, human IgG1, name in EU numbering, Alterations introduced into IL6R-B3 (EU numbering)) heavy: QVQLQESGPGLVKPSETLSLTCAVSGHSISHDHAWSWVRQPPGEGLEWIGFISYSGITNYNPSLQGRVTISRDNSKNTLYLQMNSLRAEDTAVYYCARSLARTTAMDYWGEGTLVTVSSASTKGPSVFPLAPSSKSTSGGTAALGCLVKDYFPEPVTVSWNSGALTSGVHTFPAVLQSSGLYSLSSVVTVPSSSLGTQTYICNVNHKPSNTKVDKKVEPKSCDKTHTCPPCPAPEYLGGDSVFLFPPKPKDTLMISRTPEVTCVVVDVSHEDPEVKFNWYVDGVEVHNAKTKPREEQYNSTYRVVSVLTVLHQDWLNGKEYKCKVSNAALPKPIEKTISKAKGQPREPQVYTLPPSRDELTKNQVSLTCLVKGFYPSDIAVEWESNGQPENNYKTTPPVLDSDGSFFLYSKLTVDKSRWQQGNVFSCSVMHEALHNHYTQESLSLSP light: DIQMTQSPSSLSASVGDRVTITCRASQDISSYLNWYQQKPGKAPKLLIYYTSRLHSGVPSRFSGSGSGTDFTFTISSLQPEDIATYYCQQGNTLPYTFGQGTKVEIK", "values": [{"measurement": "KD(IIaR)/KD(IIb)", "result": 15.5}]}, {"binder": "IL6R-BP151/IL6R-L (antibody, human IgG1, name in EU numbering, Alterations introduced into IL6R-B3 (EU numbering)) heavy: QVQLQESGPGLVKPSETLSLTCAVSGHSISHDHAWSWVRQPPGEGLEWIGFISYSGITNYNPSLQGRVTISRDNSKNTLYLQMNSLRAEDTAVYYCARSLARTTAMDYWGEGTLVTVSSASTKGPSVFPLAPSSKSTSGGTAALGCLVKDYFPEPVTVSWNSGALTSGVHTFPAVLQSSGLYSLSSVVTVPSSSLGTQTYICNVNHKPSNTKVDKKVEPKSCDKTHTCPPCPAPDYLGDDSVFLFPPKPKDTLMISRTPEVTCVVVDVSHEDPEVKFNWYVDGVEVHNAKTKPREEQYNSTYRVVSVLTVLHQDWLNGKEYKCKVSNAALPRPIEKTISKAKGQPREPQVYTLPPSRDELTKNQVSLTCLVKGFYPSDIAVEWESNGQPENNYKTTPPVLDSDGSFFLYSKLTVDKSRWQQGNVFSCSVMHEALHNHYTQESLSLSP light: DIQMTQSPSSLSASVGDRVTITCRASQDISSYLNWYQQKPGKAPKLLIYYTSRLHSGVPSRFSGSGSGTDFTFTISSLQPEDIATYYCQQGNTLPYTFGQGTKVEIK", "values": [{"measurement": "KD(IIaR)/KD(IIb)", "result": 15.9}]}, {"binder": "IL6R-BP179/IL6R-L (antibody, human IgG1, name in EU numbering, Alterations introduced into IL6R-B3 (EU numbering)) heavy: QVQLQESGPGLVKPSETLSLTCAVSGHSISHDHAWSWVRQPPGEGLEWIGFISYSGITNYNPSLQGRVTISRDNSKNTLYLQMNSLRAEDTAVYYCARSLARTTAMDYWGEGTLVTVSSASTKGPSVFPLAPSSKSTSGGTAALGCLVKDYFPEPVTVSWNSGALTSGVHTFPAVLQSSGLYSLSSVVTVPSSSLGTQTYICNVNHKPSNTKVDKKVEPKSCDKTHTCPPCPAPELLGDDSVFLFPPKPKDTLMISRTPEVTCVVVDVSHEDGEVKFNWYVDGVEVHNAKTKPREEQYNSTYRVVSVLTVLHQDWLNGKEYKCKVSNAALPKPIEKTISKAKGQPREPQVYTLPPSRDELTKNQVSLTCLVKGFYPSDIAVEWESNGQPENNYKTTPPVLDSDGSFFLYSKLTVDKSRWQQGNVFSCSVMHEALHNHYTQESLSLSP light: DIQMTQSPSSLSASVGDRVTITCRASQDISSYLNWYQQKPGKAPKLLIYYTSRLHSGVPSRFSGSGSGTDFTFTISSLQPEDIATYYCQQGNTLPYTFGQGTKVEIK", "values": [{"measurement": "KD(IIaR)/KD(IIb)", "result": 15.7}]}, {"binder": "IL6R-BP180/IL6R-L (antibody, human IgG1, name in EU numbering, Alterations introduced into IL6R-B3 (EU numbering)) heavy: QVQLQESGPGLVKPSETLSLTCAVSGHSISHDHAWSWVRQPPGEGLEWIGFISYSGITNYNPSLQGRVTISRDNSKNTLYLQMNSLRAEDTAVYYCARSLARTTAMDYWGEGTLVTVSSASTKGPSVFPLAPSSKSTSGGTAALGCLVKDYFPEPVTVSWNSGALTSGVHTFPAVLQSSGLYSLSSVVTVPSSSLGTQTYICNVNHKPSNTKVDKKVEPKSCDKTHTCPPCPAPELLGDDSVFLFPPKPKDTLMISRTPEVTCVVVDVSHEDGEVKFNWYVDGVEVHNAKTKPREEQYNSTYRVVSVLTVLHQDWLNGKEYKCKVSNKALPKPIEKTISKAKGQPREPQVYTLPPSRDELTKNQVSLTCLVKGFYPSDIAVEWESNGQPENNYKTTPPVLDSDGSFFLYSKLTVDKSRWQQGNVFSCSVMHEALHNHYTQESLSLSP light: DIQMTQSPSSLSASVGDRVTITCRASQDISSYLNWYQQKPGKAPKLLIYYTSRLHSGVPSRFSGSGSGTDFTFTISSLQPEDIATYYCQQGNTLPYTFGQGTKVEIK", "values": [{"measurement": "KD(IIaR)/KD(IIb)", "result": 18.5}]}]}
